Laboratory results from US20190175730A1 (Five Prime, published 2019).
One block for each binder: values may come before it.

Target: T1, human FGFR2IIIb expressed on Ba/F3 cells (human, UniProt P21802 22-821)
T1 chain: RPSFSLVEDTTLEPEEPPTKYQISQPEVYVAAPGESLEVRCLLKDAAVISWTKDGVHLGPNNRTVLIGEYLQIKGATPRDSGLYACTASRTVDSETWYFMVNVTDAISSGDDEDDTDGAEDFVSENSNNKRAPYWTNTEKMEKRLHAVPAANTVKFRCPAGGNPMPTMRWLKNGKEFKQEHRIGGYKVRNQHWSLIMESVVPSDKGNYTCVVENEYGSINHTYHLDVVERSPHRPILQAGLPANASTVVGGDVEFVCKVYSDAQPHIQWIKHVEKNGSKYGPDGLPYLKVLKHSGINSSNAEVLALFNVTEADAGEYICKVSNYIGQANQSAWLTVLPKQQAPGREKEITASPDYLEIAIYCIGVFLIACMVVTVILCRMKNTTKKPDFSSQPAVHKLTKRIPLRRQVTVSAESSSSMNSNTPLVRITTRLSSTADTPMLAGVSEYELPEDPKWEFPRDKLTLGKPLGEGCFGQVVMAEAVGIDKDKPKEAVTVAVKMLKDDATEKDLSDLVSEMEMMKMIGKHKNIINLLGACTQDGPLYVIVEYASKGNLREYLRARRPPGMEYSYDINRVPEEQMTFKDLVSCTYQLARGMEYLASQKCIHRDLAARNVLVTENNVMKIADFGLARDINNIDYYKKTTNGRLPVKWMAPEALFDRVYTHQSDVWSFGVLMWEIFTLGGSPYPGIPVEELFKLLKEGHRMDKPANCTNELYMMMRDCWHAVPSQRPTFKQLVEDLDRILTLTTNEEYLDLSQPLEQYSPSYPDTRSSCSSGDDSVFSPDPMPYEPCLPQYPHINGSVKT
Experiment: cell-based or functional assay

- EC50 (ng/mL) of ADCC, LDH release: 2 ng/mL
B1: afucosylated monoclonal antibody αFGFR2bA (antibody, human IgG1, kappa)
heavy: not shown
light: DIQMTQSPSSLSASVGDRVTITCKASQGVSNDVAWYQQKPGKAPKLLIYSASYRYTGVPSRFSGSGSGTDFTFTISSLQPEDIATYYCQQHSTTPYTFGQGTKLEIKRTVAAPSVFIFPPSDEQLKSGTASVVCLLNNFYPREAKVQWKVDNALQSGNSQESVTEQDSKDSTYSLSSTLTLSKADYEKHKVYACEVTHQGLSSPVTKSFNRGEC
modifications: Asn297 glycan lacks fucose (afucosylated; produced in FUT8-lacking Potelligent CHOK1SV cells)

- EC50 (ng/mL) of ADCC, LDH release: 16 ng/mL
B2: fucosylated monoclonal antibody αFGFR2bF (antibody, human IgG1, kappa)
heavy: not shown
light: B1 light
modifications: Asn297 glycan contains fucose (fucosylated)
